Measured values published in publication PMC8758671.

Experiments:
[1] = molecular target: porcine trypsin (porcine) (UniProt P00761); assay: enzyme inhibition kinetics (double-reciprocal, Lineweaver-Burk plot); 0, 66.66 and 133.33 ηmol L^−1 rTcTI against 10 µg porcine trypsin, 15 min at 37 °C, then substrate BApNA at 0.04–0.42 (printed ηmol L^−1) in 240 µL; absorbance at 410 nm; quadruplicate; competitive inhibition
[2] = molecular target: porcine trypsin (porcine) (UniProt P00761)

Chain of UniProt P00761 (P00761 9-231): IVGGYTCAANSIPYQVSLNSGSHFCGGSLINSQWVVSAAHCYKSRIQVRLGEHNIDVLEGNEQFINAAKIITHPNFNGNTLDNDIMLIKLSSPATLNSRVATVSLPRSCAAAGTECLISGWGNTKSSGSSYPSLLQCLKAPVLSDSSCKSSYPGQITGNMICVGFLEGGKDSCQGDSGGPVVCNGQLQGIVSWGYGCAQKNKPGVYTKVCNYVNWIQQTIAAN

recombinant Theobroma cacao trypsin inhibitor (rTcTI) (natural protein)
Ki [1]: 408 nM
residual trypsin activity (hydrolysis of BApNA, absorbance at 410 nm) with rTcTI rising from 0.5 to 1.2 μmol L^−1; 70% at the lower concentration [2]: 12%
